Assays:
[1] = tested on: F-ZFPNARP-meth-NES (ZFPNARP fused to human DNMT3a catalytic domain residues 592-909) (synthetic construct); assay: cell_activity
[2] = tested on: F-ZFPcont-meth-NES (ZFPcont fused to human DNMT3a catalytic domain residues 592-909) (synthetic construct); assay: cell_activity; details: NARP cells; scale: fold lower CpG methylation than F-ZFPNARP-meth-NES

Sequence	activity (% of clones with CpG methylation) ([1]; bisulfite sequencing around site in NARP cybrid cells, CpGs within site protected)	activity [2]	activity ([1]; wt cells, indistinguishable from background, scale: fold lower CpG methylation than on NARP site)
GCCCGGGCC (double strand) [NARP T8993G mtDNA site]	23	6	
GCCCTGGCC (double strand) [wild-type mtDNA 8993 site]			6

Reference: US20090186816
